The record followed here is patent US20250161359A1.

In assay [1] the target is PR3_1_30: PR3_1_(WT) CD33SP MS CD28TM CAAR (human). Kind of assay: cell-based or functional assay.
The target of assay [2] is PR3_10_56: PR3_10 (H44A) CD33SP SS CD28TM CAAR (human). In words: cell-based or functional assay.
Sequence of PR3_10_56: PR3_10 (H44A) CD33SP SS CD28TM CAAR (human) (chain, as listed by the source H44A H44A limits assumed): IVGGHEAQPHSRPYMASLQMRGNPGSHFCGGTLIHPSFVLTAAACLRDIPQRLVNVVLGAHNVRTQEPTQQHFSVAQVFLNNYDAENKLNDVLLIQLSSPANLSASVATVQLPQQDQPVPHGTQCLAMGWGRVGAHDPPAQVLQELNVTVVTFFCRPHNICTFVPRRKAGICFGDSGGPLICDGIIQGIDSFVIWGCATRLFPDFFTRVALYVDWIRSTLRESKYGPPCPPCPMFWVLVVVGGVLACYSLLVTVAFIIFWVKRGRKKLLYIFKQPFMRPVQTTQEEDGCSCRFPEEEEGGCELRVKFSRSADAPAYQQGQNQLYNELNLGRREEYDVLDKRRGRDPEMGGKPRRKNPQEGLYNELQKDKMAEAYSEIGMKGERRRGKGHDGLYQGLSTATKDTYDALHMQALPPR

Sequence of PR3_1_30: PR3_1_(WT) CD33SP MS CD28TM CAAR (human) (chain, as listed by the source limits assumed): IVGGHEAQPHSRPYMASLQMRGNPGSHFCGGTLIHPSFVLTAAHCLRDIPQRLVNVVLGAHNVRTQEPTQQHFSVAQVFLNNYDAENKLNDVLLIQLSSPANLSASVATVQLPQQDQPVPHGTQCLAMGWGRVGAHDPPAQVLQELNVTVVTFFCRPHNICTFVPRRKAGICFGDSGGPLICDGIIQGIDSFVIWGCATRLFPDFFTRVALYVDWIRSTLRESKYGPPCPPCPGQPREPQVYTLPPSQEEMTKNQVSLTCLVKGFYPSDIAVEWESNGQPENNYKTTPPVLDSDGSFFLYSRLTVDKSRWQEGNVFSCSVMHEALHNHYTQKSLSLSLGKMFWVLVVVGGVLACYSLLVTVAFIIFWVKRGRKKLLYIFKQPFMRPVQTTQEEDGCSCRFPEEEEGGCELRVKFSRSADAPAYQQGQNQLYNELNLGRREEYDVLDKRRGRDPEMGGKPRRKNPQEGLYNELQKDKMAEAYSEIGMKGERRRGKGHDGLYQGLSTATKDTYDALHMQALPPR

With “anti-PR3 antibody, EMD Millipore, clone MCPR3-3, catalog #MABF973”, the CAAR killing efficiency against the lowest density IgG+-CHO-S target (MCPR3-3 #4 (L)) in assay [1] and in assay [2] was 65% in each case.
